Reference: doi:10.1101/2024.06.20.599867 (bioRxiv, 2024)

Molecular target: the molecule itself
Test: cryo-EM structure

B1: ABC transporter MsbA (His-tagged, E. coli) (natural protein)
chain: MHNDKDLSTWQTFRRLWPTIAPFKAGLIVAGVALILNAASDTFMLSLLKPLLDDGFGKTDRSVLVWMPLVVIGLMILRGITSYVSSYCISWVSGKVVMTMRRRLFGHMMGMPVSFFDKQSTGTLLSRITYDSEQVASSSSGALITVVREGASIIGLFIMMFYYSWQLSIILIVLAPIVSIAIRVVSKRFRNISKNMQNTMGQVTTSAEQMLKGHKEVLIFGGQEVETKRFDKVSNRMRLQGMKMVSASSISDPIIQLIASLALAFVLYAASFPSVMDSLTAGTITVVFSSMIALMRPLKSLTNVNAQFQRGMAACQTLFTILDSEQEKDEGKRVIERATGDVEFRNVTFTYPGRDVPALRNINLKIPAGKTVALVGRSGSGKSTIASLITRFYDIDEGEILMDGHDLREYTLASLRNQVALVSQNVHLFNDTVANNIAYARTEQYSREQIEEAARMAYAMDFINKMDNGLDTVIGENGVLLSGGQRQRIAIARALLRDSPILILDEATSALDTESERAIQAALDELQKNRTSLVIAHRLSTIEKADEIVVVEDGVIVERGTHNDLLEHRGVYAQLHKMQFGQ
  binding result: binds
